The results in this text go back to PMC4482198.

For the experiment, the target named is Angiotensin-II (Rattus norvegicus). The experiment is described as follows: radioligand.

B1: Angiotensin II type-1 receptor (AT1R), P25095 (protein)
chain: MALNSSAEDGIKRIQDDCPKAGRHSYIFVMIPTLYSIIFVVGIFGNSLVVIVIYFYMKLKTVASVFLLNLALADLCFLLTLPLWAVYTAMEYRWPFGNHLCKIASASVSFNLYASVFLLTCLSIDRYLAIVHPMKSRLRRTMLVAKVTCIIIWLMAGLASLPAVIHRNVYFIENTNITVCAFHYESRNSTLPIGLGLTKNILGFLFPFLIILTSYTLIWKALKKAYEIQKNKPRNDDIFRIIMAIVLFFFFSWVPHQIFTFLDVLIQLGVIHDCKISDIVDTAMPITICIAYFNNCLNPLFYGFLGKKFKKYFLQLLKYIPPKAKSHSSLSTKMSTLSYRPSDNMSSSAKKPASCFEVE
Turning to B1, the Kd turned out to be 2.8 nM.

For orientation: Kd means the constant that tells how readily two partners part at equilibrium. Higher therefore signals a looser complex.
